Target: T1, recombinant human cANGPTL4 (C terminal region of angiopoietin-like 4) (human, UniProt Q9BY76 186-406, limits assumed)
T1 construct: domain: c terminal region; Immobilized on the chip in SPR; added at 6 µg/ml to HMVECs in cell assays; also called rh-cANGPTL4; rhcANGPTL4
T1 sequence (looked up): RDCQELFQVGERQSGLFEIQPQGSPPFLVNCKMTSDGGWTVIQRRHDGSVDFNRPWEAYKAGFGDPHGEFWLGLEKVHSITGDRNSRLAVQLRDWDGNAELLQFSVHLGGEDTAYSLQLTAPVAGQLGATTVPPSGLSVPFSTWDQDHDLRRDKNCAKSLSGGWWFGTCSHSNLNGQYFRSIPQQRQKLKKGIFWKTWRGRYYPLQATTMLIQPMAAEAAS
Assay: SPR (BIAcore 2000), immobilized cANGPTL4, global fitting
Method: Six concentrations (0.16, 0.32, 0.63, 1.25, 2.50 and 5.0 μM) of recombinant integrin β1, first extracellular domain of VE-cadherin (ECD1), extracellular repeat 1 domain of VE-cadherin (EC1), occludin or JAM-A were used.
Global fitting of the SPR data was performed as previously described to determine the KD. Preinjection or preincubation with the indicated antibodies or preimmune IgG was performed to determine specific interactions. Each sensorgram was corrected by subtracting a sensorgram obtained from a reference flow cell with no immobilized protein. […] Values are mean±S.D. (n=3)

B1: claudin-5 (SPR analyte) (other, UniProt O00501 1-218, looked up)
chain: MGSAALEILGLVLCLVGWGGLILACGLPMWQVTAFLDHNIVTAQTTWKGLWMSCVVQSTGHMQCKVYDSVLALSTEVQAARALTVSAVLLAFVALFVTLAGAQCTTCVAPGPAKARVALTGGVLYLFCGLLALVPLCWFANIVVREFYDPSVPVSQKYELGAALYIGWAATALLMVGGCLLCCGAWVCTGRPDLSFPVKYSAPRRPTATGDYDKKNYV
  Kd: 58.7 nM

Reference: patent publication US20180319878A1 (NANYANG TECHNOLOGICAL UNIVERSITY, published 2018)
